Assay results reported in the nanobody polyreactivity screen of Harvey et al. (2022).

Assay: yeast display, Sf9 membrane polyspecificity reagent, FACS + sequencing; frameworks hold sequencing errors
Procedure, shortened: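 In a synthetic yeast display library (Saccharomyces cerevisiae BJ5465), nanobody expression was induced with galactose for 36–48 hours. FACS gates were set low and high (top ~1%) using anti-HA fluorescence for expression and streptavidin fluorescence for binding of the Sf9 membrane reagent. Each polyreactivity label is drawn from the gate of origin.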

Sequence | polyreactivity (PSR sort gate)
QVQLVESGGGLVQAGGSLRLSCAASGRTFWYYAMGWYRQAPGKERELVAAITYRGTRTYADSVKGRFTISRDNAKNTVYLQMNSQKPEDTPVYYCAKDVGYRYSRTMDYWGQGTQVTVSS | high polyreactivity
QVQLVESGGGLVQAGGSLRLSCAASGSTFAQDALGWYRQAPGKERELVATISASGGTTYYADSVKGRFSISRDNAKNPVYLQMNSLKPEDTAVYYCAKRRVWWPAHRSYLYASEFGYWGQGTQVTVSS | low polyreactivity
QVQLVESGGGLVQAGGSLRLSCAASGRIFDHYAMGSYRQAPGKERELVAAISGGGDSTYYAYSVKGRFTISRDNAKNTVYLQMNSLKPEDTAVFYCAADFYVYWGNYAQDYYYWGQGTQVTVSS | high polyreactivity
QVQLVESGGGLVQAGGSLRLSCAASGLIFDDYAMGWYRQAPGKERELVAAISLSGGSTFYADSVKGRFTISRDNAKNTVYLQMNSLKAEDTAVYYCAAQARRAYVQTRMYYWGQGTQVTVSS | high polyreactivity
QVQLVESGGGLVQAGGSLRLSCAASGSIFVRYAMGWYRQAPGKERELVASIRSRGDSTYYADSVKGRFTISRDNAKNTVYLQMNSLKPEDTAVYYCAVQRSYVGPRQYNYWGQGTQVTVSS | high polyreactivity
QVKLVESGGGLVQAGGSLRLSCAASGIIFYRYAMGWYRQAPGKERELVAAISGRTGRTYYADSVKGRFTISRDNAKNTVYLQMNSLKPEDTAVYYCAADYYHYRYQTRLDYWGQGTQVTVSS | high polyreactivity
QVQLVESGGGLVQAGGSLRLSCAASGRTFWYYDMGWYRQAPGKERELVATINNVGSTHYADSVKGRFTISRDNAKNTVYLQMNSLKPEDTAVYYCARASYGKMDYWGQGTQVTVSS | high polyreactivity
QVQLVESVGGLVQAGGSLRLRCGASGSIFYIYAMGWYRHAPGNERELVAAITRRAATYADSVKGRFTISRDNAKKTGYLQMNSLKPEDTAVYYCNADVQRLGRYDYWGQGTQVTVSS | high polyreactivity
QVQLVESGGGLVQAGGSLRLSCAASGRTFRGYAMGWYRQAPGKERELVAAITWRGGSTKYADSVKGRFTISRDNAKNTVYLKMNSLKPEDTAVYYCAAARHYLTFWGQGSQVTVSS | high polyreactivity
QVQLVESGGGLVQAGGSLRLSCAASGFIFVRYAMGWYRQAPGKERELVAAISSSGGTTNYADSVKGRFTISRDNAKNTVYLQMNSLKPEDTAVYYCAAYVYQTPHSLHIYDYWGQGTQVTVSS | low polyreactivity
QVQLVESGGGLVQAGGSLRLSCAASGFTFDAYDMGWYRQAPGKERELVAAISWRGIDTTYADSVKGRFTISRDNAKNTVYLQMNSLKPEDTAVYYCAEFVSDATVGPSKGLDYWGQGTQVTVSS | low polyreactivity
QVQLQESGGLVQAGGLRLSCAASGSVSYQEAMGWYRQAPGKERELVATISFGAKTNYADSVKGRFTISRDNAKNTVYLHINSLNPEDTAVYYCAAESLFDDYYGYWGQGTQVTVSS | low polyreactivity
QVQLVESGGGLVQAGGSLRLSCAASGRTFGGYTMGWYRKAPGKERELVAAISKRGGSTYYADSVKGRFTISRDNAKNTVYLQMNSLKPEDTAVYYCARDVRTVIVSTGYDYWGQGTQVTVSS | high polyreactivity
QVQLVESGGGLVQAGGSLRLSCAASGFILGQYTMGWYRQAPGKERELVASINGSDGITYYADSVKGRFTISRDNAKNTVYLQMNSLKPEDTAVYYCARPPRHYTFWGRRFYYWGQGTQVTVSS | low polyreactivity
QVQLVESGGGLVQAGGSLSLICADTGLTFRVYAMGWYRQAPGKERELVAAISSRGGSTYYADSVKGRFTISRDNAKYTVLLQMNSLKPEDTAVYDCYARGQGGYWGQGTQVTVSS | high polyreactivity
QVQLVQSGGCLVQAGGSLRLSCSASGSIFVHHDMGWYRQAPGKERELVAAISWGGGRTYYADSVKGRFTISRDNAKNTVYLQMNSLKPEDTAVYYCAVDGGEFSSYGYWGQGTQVTVSS | low polyreactivity
QVQLVESGGGLVQAGGSLRLSCAASGSIFYSNAMGWYRQAPGKERELVAAISDGGTSTYYADSVKGRFTISRDNAKNTVYLQMNSLKPEDTAVYYCAAESTLQDWNWYKYYYWGQGTQVTVSS | low polyreactivity
QVQLVESVGGLVQAGGSLRLSCAASGSIFSSYAMGWYRQAPGKERELVAAITSGGSTYYADSVKGRFTISRDNAKNTVYLQMNSLKPVDPAVYYCAAREVLTSKLHMGYWGTGTQVTVSS | low polyreactivity
QVQLVESGGGLVQAGGSLRLSCAASGRIFVSHAMGWYRQAPGKERALVAGITWTSGSTYYADSVKGRFTISRDNAKNTVYLQMKSLKPEDTAVYYCAAEYWYGNAFDYWGLGTQVTVSS | low polyreactivity
QVQLVEAGGGLVQAGGSLRLSCAASGSTFSYAMGWYRQAPGKETELVAAITIGGRTSYADSVKGRFTISRDNAKNTVYLQMNSLKPEDTAVYYCAAEGYYPVYYYVYYGFDYWGQGTQVTVSS | low polyreactivity
QVQLVESGGGLVQAGGSLRLSCAASGGTFYVNAMGWYRQAPGKERELVADISYSGGRTYYADSVKGRFTISRDNAKKTVYLQMNSLKPEDTAVYYCAADPYWVGYGSPFGYWGQGTQVTVSS | high polyreactivity
QVQLVESVGGLVQAGGSLRLSCDASGRTFRVYAMGWYRQAPGKERELVAAITSGDSTYYADSVKGRFTISRDNAKNTFYLQMNSLKPEDTAVYYCAVNTSRYWSGYWGQGTQVTVSS | high polyreactivity

Sequence | polyreactivity (PSR sort gate)
QVQLVESGGGLVQAGGSLRLICAASGRTFSYYAIAWYRPAPGKERELVAAINWSGTRTYYADSVTGRCTISRDNAKNTVYLQMNSLNPEDTAVYYCARRWVGYDYWGQGTQVTVSS | high polyreactivity
QVQLVESGGGLVQAGGSLRLSCAASGSIFYPNAMGWYRQAPGKESELVAAISSSGGTNYADSVKGRFTISRDNAKNTVYLQMNSLKPEDTAVYYCAADIRSNRLYDGGYWGQGTQVTVSS | low polyreactivity
QVQLVESGGGLVQAGGSLRLSCAASGSTFVGYAMGWYRQAPGKERELVAAISGSGTSTYYADSVKGRFTISRDNAKNTVYLQMNSLKPEDTAVYYCNADPIFVYSSYNYWGQGTQVTVSS | low polyreactivity
QVQLVESGGGLVQAGGSLRLSCAASGSPFRHYALGWYRQAPGKERELVAVISWGGTSTYYADSGKGRFTISRDNAKNTVYLQMNSLKPEDSAVYYCNADSNWYYQWNYYGLYDYWGQGTQVTVSS | low polyreactivity
QGQLEESGGGLVQAGGSLRLSCAASGFIIYDYDMGRYRQAPGKERELVAAITYSGGSTYYADSVKGRFTISRDNAKNTVYLQMNSLKPEDTAVYHCAAVKSRYAVAVDYYYWGQGTQVTVSS | low polyreactivity
QVQLVESGGGLVQAGGSLRLSCAASGSTFYVNTMGWYRQAPGKERELVATITASDGSTYADSVKGRFTISRDNAKNTVYLQMNSLKPDDTAVYYCNADTRTQGPYSAPYYREMNYWGQGTQVTVSS | low polyreactivity
QVQLVESGGGLVQAGGSLRLSCAASGRTVNAMGWYRQAPGKERELVAAINSGTSTYADSVKGRFTISRDNAKNTVYLQMNSLKPEDTAVYYCAKTYFWPFHGRFVGYDYWGQGTQVTVSS | low polyreactivity
QVQLAESGGGLVQAGGSLRLSCAASGGTIGVNAMGWYRQAPGKERELVARISRIGASTHYADSVKGRFTISRDNAKNTVYLMMNSLKPEDTAVYYCAKSNGTPGNFGYWGQGTQVTVSS | low polyreactivity
QVQLVESGGGLVQAGGSLRLSCAATGRSFVLNAMGWYRQAAGKERELVATINYSGSSTYYADSVKGRFTISRDNAKNTVYLQMNSLKPEDTAVYYCNRDVPYRLVYYANYYWGHGTQVTVSS | low polyreactivity
QVQLVESGGGLVQAGGSLRLSCAASGRTVLVYTMGWYRQAPGKERELVAAISWSDGSTYYADSVKGRFTMSRDNAKNTVYLHMNSLKPEDTAVYYCAARTFSAFWRGGYDYWGQGTQVTVSS | low polyreactivity
QVQLVESGGGLVQAGGSLRLSCAASGLIFGPYAMGWYRQAPGKERELVAAISARGGSTRYADSVKGRFTISRDNAKNTVYLQMNSLKPEDTAVYYCAASTWYGYDYWGQGTQVTVSS | high polyreactivity
QVQLVESGGGLVQAGGSLRFSCAASGRNFVVYAMGWYRQAPRKEREFVAAITWSGDSTTYYADSVKGRFTISRDNAMTTFYLQLKSLKPDDTAVYYCASEGDGANGGAYDYWGQGTQVNVSS | low polyreactivity
QVQLVESGGVLVQAGGSLRLSCAASGRIFWGYAMGWYRQAPGKERELVARLTSGGDTYYADSVKGRFTISRDNAKNTVDLQMNSLKPEDTAVYYCAKSTAVKPYAYRESGFIYDYRGQGTQVTVSS | low polyreactivity
QVQLVESGGGLVQAGGSLRLSCAASGSIFRWNAMGWYRQAPGKERELVAAITWRSSSTYYADSVKGRFTISRDNAKNTVYLQMNSLKPEDTAVYYCNAKRGVQTYANFYGSKYDYWGQGTQVTVSS | high polyreactivity
QVQLVESGGGLVQAGGSLRLSCAASGSTFYTYTMGWYRQAPGKERELVAAISSSGGDTYYADSVKGRFTISRDNAKNTVYLQMNSLKPEDSAVYYCAALGAFPSLEFDYWGQGTQVTVSS | low polyreactivity
QVQLVESGGGLVQAGGSLRLSCAASGGTFYYYAMGWYRQAPGKERELVATITWSGDSTNYADSVKGRFTISRDNAKNTVYLQMNSLKPEDTAVYYCAKDLTQSYEYDYWGQGTQVTVSS | low polyreactivity
QVQLVESGGGLVQAGGSLRLSCAASGSTFDVYAMGWYRQAPGKERELVAAITQSGGSTYYADSVKGRFTISRDNAKNTVYLQMNSLKTEDTAVYYCAAREWRSFDYWGQGTQVTVSS | low polyreactivity
QVHLVESRGGLVQAGGSLSLSCAASGITFYIYAMGWYRQAHGKERELVAAFTTSGDSTYYADSVKGRFTISRDNAKNTVYLQMNSLKPEDTAVYDCAAEYWYTYSWGQGTQVTVLS | low polyreactivity
QVQLVESGGGLVQAGGSLRLSCAASGRIIYGNALGWYRQAPGKERELVAAITSGGSTNYADSVKGRFPISRDNAKNTVYLQMNSLIPEDTAVYYCNAVVYSAYRYEYWGQGTQVTVSS | low polyreactivity
QVQLVESGGGLVQAGGSLRLTCAASGNIFYINAMGSYRQAPGKDRELVAAIRGGGSTYYADSVKGRFTISRDNAKKTVYLQMTSLKAEDTAVYYCAARGRRLNPQYRAFGMDYWGQGTQVTVSS | high polyreactivity
QVQLVESGGGLVQAGGSLRLSCAASGSTFNRYAMGWYRQAPGKERELVAAISGSGSSTYYADSVKGRFTISRDNAKNTVYLQMNSLKPEDTAVYYCAAVRYEYDYWGQGTQVTVSS | high polyreactivity
